Read-outs that look alike come from different tables or passages of the source.
T1: Staphylococcus enterotoxin B (Staphylococcus aureus, UniProt P01552 28-266)
T1 sequence: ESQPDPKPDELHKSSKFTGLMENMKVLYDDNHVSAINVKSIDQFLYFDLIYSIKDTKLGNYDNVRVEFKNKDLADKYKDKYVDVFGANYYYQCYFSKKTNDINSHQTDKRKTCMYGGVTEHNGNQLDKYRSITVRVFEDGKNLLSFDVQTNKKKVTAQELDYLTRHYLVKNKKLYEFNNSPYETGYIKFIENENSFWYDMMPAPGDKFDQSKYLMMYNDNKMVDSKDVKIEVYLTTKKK


How the values were obtained:
[1] = biological target: T1, Staphylococcus enterotoxin B
[2] = biological target: T1, Staphylococcus enterotoxin B; assay: cell-based or functional assay
[3] = biological target: T1, Staphylococcus enterotoxin B; assay: cell-based or functional assay; remark: listed apart in the source

Row | Binder | Kd [1] [nM] | EC50 of inhibition of SEB-induced IFN-γ production by human PBMC [2] [µg/mL] | EC50 of inhibition of SEB-induced IFN-γ production by human PBMC [3] [ng/mL] | EC50 of inhibition of SEB-induced TNF-α production by human PBMC [3] [ng/mL]
1 | human anti-SEB monoclonal antibody 100C9 (antibody, V domains shown) VH: EVQLVESGGGLVQPGGSLRLSCSASGFTFSSYWMSWVRQAPGKGLEWVANIIQDGSEKYYADSVKGRLTISRDNAKNSLYLQMNSLRVDDTAVYYCARGYEGCSATRCYLYYFDYWGPGTLVTVSS VL: SYVLTQPPSVSVSPGQTARITCSGDALPKQYTYWYQQKPGQAPVVVIYKDSERPSGIPERFSGSSSGTTVTVTISGVQAEDEADYYCQSADSSGTSLVFGGGTKLTVLG | 9.75 | 0.0766 | – | –
2 | human anti-SEB monoclonal antibody 79G9 (antibody, V domains shown) VH: EVQLEESGAGLLKPSETLSLTCAVYGGSFSGYYWSWIRQAPGKGLEWIGEIDHSGTTNYNPSLKSRVTISVETSKNQFSLRLSSVTAADSAVYYCASSGYCSHGLCPQEDWGQGTLVTVSS VL: DIELTQSPSFLSASVGDRVAITCRASQGISNYLAWYQQKPGKAPKLLIYAAFVLQSGVPSRFSGSGSGTEFTLTISNLQPEDFATYYCQQLNSYPRAFGPGTKVDIKR | 25 | 0.125 | 158 | 217
